Data reported in patent publication US20260174875A1 (Novo Nordisk A/S, priority 2023, published 2026).
Numbered stars: 1 amine (or outer) side, 2 acyl side, 3 side chain; on linkers, the order of the positions; unused ones are H or OH. Square brackets hold non-standard residues; d marks the D form. Side chains are listed from the residue outwards. * marks the point of attachment. C18 diacid = O=C(O)CCCCCCCCCCCCCCCCC(=O)*; C16 diacid = O=C(O)CCCCCCCCCCCCCCC(=O)*; γGlu = O=C(O)[C@H](CCC(=O)[*:2])N[*:1]; Chem. 28 = not defined here; AEEA = NCCOCCOCC(=O)O; Aib = CC(C)(N)C(=O)O

What was measured:
Experiment in all cases: cell-based or functional assay
[1] = biological target: T1, human GLP-1 receptor (human, UniProt P43220 24-463)
[2] = biological target: T2, human GIP receptor (human, UniProt P48546 22-466)
T2 sequence (looked up): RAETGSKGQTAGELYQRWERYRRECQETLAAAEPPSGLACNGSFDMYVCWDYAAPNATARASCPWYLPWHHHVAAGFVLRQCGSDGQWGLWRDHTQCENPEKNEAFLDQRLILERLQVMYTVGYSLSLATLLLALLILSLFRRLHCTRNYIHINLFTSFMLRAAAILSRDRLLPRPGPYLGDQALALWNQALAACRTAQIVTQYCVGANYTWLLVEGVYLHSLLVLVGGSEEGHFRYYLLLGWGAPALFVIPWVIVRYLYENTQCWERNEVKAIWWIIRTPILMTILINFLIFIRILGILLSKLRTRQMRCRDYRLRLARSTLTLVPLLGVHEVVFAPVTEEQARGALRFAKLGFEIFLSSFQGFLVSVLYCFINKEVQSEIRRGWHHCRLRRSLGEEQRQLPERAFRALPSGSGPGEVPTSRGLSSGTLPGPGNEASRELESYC

[3] = biological target: T3, human amylin-3(a) receptor (human, UniProt P30988 25-474; O60896 24-148)
T3 sequence (looked up) 1: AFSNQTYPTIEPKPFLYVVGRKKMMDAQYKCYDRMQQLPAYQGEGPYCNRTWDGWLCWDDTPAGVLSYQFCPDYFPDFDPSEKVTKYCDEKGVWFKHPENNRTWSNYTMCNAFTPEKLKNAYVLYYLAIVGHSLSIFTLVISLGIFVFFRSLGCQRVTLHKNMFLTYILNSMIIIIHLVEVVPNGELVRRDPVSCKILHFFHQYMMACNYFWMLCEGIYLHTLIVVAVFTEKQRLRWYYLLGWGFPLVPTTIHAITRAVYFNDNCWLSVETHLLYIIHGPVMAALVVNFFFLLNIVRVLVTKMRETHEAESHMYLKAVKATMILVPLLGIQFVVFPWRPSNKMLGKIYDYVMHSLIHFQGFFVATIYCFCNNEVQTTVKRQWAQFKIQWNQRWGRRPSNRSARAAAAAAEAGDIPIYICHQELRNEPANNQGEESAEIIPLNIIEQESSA
T3 sequence (looked up) 2: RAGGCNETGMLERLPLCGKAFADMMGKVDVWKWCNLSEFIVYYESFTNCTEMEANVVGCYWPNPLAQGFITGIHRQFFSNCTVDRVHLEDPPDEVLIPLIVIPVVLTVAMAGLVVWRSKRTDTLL

[4] = biological target: T1, human GLP-1 receptor; remark: listed apart in the source
[5] = biological target: T2, human GIP receptor; remark: listed apart in the source
[6] = biological target: T3, human amylin-3(a) receptor; remark: listed apart in the source

| Binder | hGLP-1R Potency, no HSA, EC50 [pM] [1] | hGIPR Potency, no HSA, EC50 [pM] [2] | hAMYR3 Potency, no HSA, EC50 [pM] [3] | hGLP-1R Potency, 1% HSA, EC50 [pM] [4] | hGIPR Potency, 1% HSA, EC50 [pM] [5] | hAMYR3 Potency, 1% HSA, EC50 [pM] [6] |
| --- | --- | --- | --- | --- | --- | --- |
| Compound 106 (reading uncertain) peptide: H[Aib]HGTFTSDYSILLEEQAAREFIEWLLAGGPSSGALQAPGQAPGASHLSTAQTARLSAELHRLK(Chem. 28)TLPRTETGSGSP-NH2 | 3.33 pM | 4.8 pM | 2.07 pM | 11.1 pM | 10.3 pM | 31.2 pM |
| Compound 107 (reading uncertain) peptide: H[Aib]HGTFTSDYSILLEEQAAREFIEWLLAGGPSSGALQAPGQAPGASHLSTAQTARLSAELHRLATLPK(Chem. 28)TETGSGSP-NH2 | 4.1 pM | 3.87 pM | 3.07 pM | 13.9 pM | 8.76 pM | 93.1 pM |
| Compound 108 (reading uncertain) peptide: H[Aib]HGTFTSDYSILLEEQAAREFIEWLLAGGPSSGALQAPGQAPLASHLSTAQTARLSAELHK(Chem. 28)LATLPRTETGSGSP-NH2 | 4.57 pM | 4.01 pM | 2.48 pM | 15 pM | 11.4 pM | 60 pM |
| Compound 12 (peptide) peptide: H[Aib]HGTFTSDYSILLEEQAAREFIEWLLAGGPSK([AEEA-AEEA-γGlu-C16 diacid])GAPPPSGGGEASELSTAALGRLSAELHELATLPRTETGSGSP-NH2 | 0.8 pM | 2.62 pM | 6.23 pM | 10.2 pM | 59.1 pM | 55 pM |
| Compound 15 (peptide) peptide: H[Aib]HGTFTSDYSILLEEQAAREFIEWLLAGGPSK([AEEA-AEEA-γGlu-C18 diacid])GAPPPSGGGEASELSTAALGRLSAELHELATLPRTETGSGSP-NH2 | 1.41 pM | 3.2 pM | 5.01 pM | 103 pM | 356 pM | 82.2 pM |
| Compound 109 (not fully specified; reading uncertain) peptide: Y[Aib]EGTFTSDYSILLEEQAAREFIEWLLAGGPSSGAPPPSGGGEASHLSTAQTQRLSAK(Chem. 28)LHRLATLPRTETGSGSP-NH2 | 68.9 pM | 7.42 pM | 3.65 pM | 94.7 pM | 17.4 pM | 32 pM |
| Compound 112 (peptide) peptide: H[Aib]HGTFTSDYSILLEEQAAREFIEWLLAGGPSK([γGlu-C18 diacid])GAPPPSGGGEASHLSTAQTARLSAELHRLADLPRTETGSGSP-NH2 | 4.37 pM | 2.42 pM | 3.65 pM | 336 pM | 321 pM | 269 pM |
